Test system: S. aureus
Test: Proteinase K neutralization of lysostaphin activity in vitro
Assay type: cell-based
Conditions: 10^5 S. aureus in PBS; lysostaphin 10 mcg and/or 10 mg/ml Proteinase K; 20 minutes at room temperature
Description: Lysostaphin (10 mcg) was added to some samples of 10^5 S. aureus in PBS in the presence or absence of 10 mg/ml Proteinase K. The samples were incubated for 20 minutes at room temperatures and then 100 microliter aliquots were plated on blood agar.

B1: Proteinase K: protease used at 10 mg/ml to neutralize lysostaphin (protein, UniProt P06873 106-384, looked up)
Proteinase K: AAQTNAPWGLARISSTSPGTSTYYYDESAGQGSCVYVIDTGIEASHPEFEGRAQMVKTYYYSSRDGNGHGTHCAGTVGSRTYGVAKKTQLFGVKVLDDNGSGQYSTIIAGMDFVASDKNNRNCPKGVVASLSLGGGYSSSVNSAAARLQSSGVMVAVAAGNNNADARNYSPASEPSVCTVGASDRYDRRSSFSNYGSVLDIFGPGTSILSTWIGGSTRSISGTSMATPHVAGLAAYLMTLGKTTAASACRYIADTANKGDLSNIPFGTVNLLAYNNYQA
  CFUs Recovered: 10^5 CFUs

Reference: US20030211995A1, “Methods and formulations for eradicating or alleviating staphylococcal nasal colonization using lysostaphin” (priority 2001, published 2003)
